Target: T1, QseB (Escherichia coli ECDCM2 (clinical bovine mastitis isolate)) (UniProt P52076)
T1 sequence: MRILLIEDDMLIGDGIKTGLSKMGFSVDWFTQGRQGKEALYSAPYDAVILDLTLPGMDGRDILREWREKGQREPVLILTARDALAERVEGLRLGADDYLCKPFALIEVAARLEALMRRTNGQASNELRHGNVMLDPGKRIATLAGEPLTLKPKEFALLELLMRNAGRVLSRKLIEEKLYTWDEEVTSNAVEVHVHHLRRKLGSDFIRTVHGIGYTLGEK
Test: EMSA

Sequence: ATGTTCGTGAATTTACAGGCGTTAGATTTACATACATTTGTGAATGTATGTACCATAGCACGACGATAATATAAACGCAGCAATGGGTTTATTAACTTTTGACCATTGACCAATTTGAAATCGGACACTCGAGGTTTACAT (double strand) [p-acrA promoter]
- binding: no binding
